Values joined by “and” are separate entries in the source; they are usually repeats but may differ in a detail not shown here. Equal values may be shown once.
Tests used:
human CTLA4 (human) [1] = target: human CTLA4 (human) (UniProt P16410); assay: ELISA, coat CTLA4 0.5 ug/ml; antibody 0 (blank)
human CTLA4 (human) [2] = target: human CTLA4 (human) (UniProt P16410); assay: ELISA, coat human CTLA4 0.5 ug/ml; antibody 1 ug/ml
human CTLA4 (human) [3] = target: human CTLA4 (human) (UniProt P16410); assay: ELISA on coated CTLA4, source Human (row of 8D2H3L3)
[4] = target: monkey CTLA4-hFc (monkey); assay: ELISA on coated CTLA4, source Monkey (row of 8D2H3L3)
human CTLA4 (human) [5] = target: human CTLA4 (human) (UniProt P16410); assay: ELISA, coat CTLA4 0.5 ug/ml; antibody 1:81 (start 1 ug/ml)
[6] = target: monkey CTLA4-hFc (monkey); assay: ELISA, coat monkey CTLA4-hFc 0.25 ug/ml; antibody 0 (blank)
human CTLA4 (human) [7] = target: human CTLA4 (human) (UniProt P16410); assay: ELISA, coat CTLA4 0.5 ug/ml; antibody 1:243 (start 1 ug/ml)
human CTLA4 (human) [8] = target: human CTLA4 (human) (UniProt P16410); assay: ELISA, coat CTLA4 0.5 ug/ml; antibody 1:729 (start 1 ug/ml)
CTLA4-mFc [9] = assay: competitive ELISA, competitor B7-1; control run with 8D2H2L2
Sequence of CTLA4-mFc (chain, as listed by the source limits assumed): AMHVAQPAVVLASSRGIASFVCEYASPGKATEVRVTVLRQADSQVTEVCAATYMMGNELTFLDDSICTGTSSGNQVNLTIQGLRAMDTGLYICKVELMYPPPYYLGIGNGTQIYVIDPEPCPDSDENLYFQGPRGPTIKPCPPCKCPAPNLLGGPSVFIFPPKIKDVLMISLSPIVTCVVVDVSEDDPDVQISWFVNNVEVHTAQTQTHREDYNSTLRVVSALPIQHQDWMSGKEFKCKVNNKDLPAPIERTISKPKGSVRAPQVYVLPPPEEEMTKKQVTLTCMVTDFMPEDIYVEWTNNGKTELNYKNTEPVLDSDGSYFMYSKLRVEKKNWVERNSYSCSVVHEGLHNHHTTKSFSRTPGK

CTLA4-mFc [10] = assay: competitive ELISA, competitor B7-2; control run with 8D2(Re)
CTLA4-mFc [11] = assay: competitive ELISA, competitor B7-2; control run with 8D2H2L2
CTLA4-mFc [12] = assay: competitive ELISA, competitor B7-2; control run with 8D2H3L3
CTLA4-mFc [13] = assay: competitive ELISA, competitor B7-1; control run with 8D2H2L15
CTLA4-mFc [14] = assay: competitive ELISA, competitor B7-2; control run with 8D2H2L17
human CTLA4 (human) [15] = target: human CTLA4 (human) (UniProt P16410); assay: ELISA, coat human CTLA4 0.5 ug/ml; antibody 1:3 (start 1 ug/ml)
human CTLA4 (human) [16] = target: human CTLA4 (human) (UniProt P16410); assay: ELISA, coat human CTLA4 0.5 ug/ml; antibody 1:9 (start 1 ug/ml)
human CTLA4 (human) [17] = target: human CTLA4 (human) (UniProt P16410); assay: ELISA, coat human CTLA4 0.5 ug/ml; antibody 1:81 (start 1 ug/ml)
human CTLA4 (human) [18] = target: human CTLA4 (human) (UniProt P16410); assay: ELISA, coat human CTLA4 0.5 ug/ml; antibody 1:27 (start 1 ug/ml)
human CTLA4 (human) [19] = target: human CTLA4 (human) (UniProt P16410); assay: ELISA, coat human CTLA4 0.5 ug/ml; antibody 1:81 (start 1 ug/ml); remark: listed apart in the source
human CTLA4 (human) [20] = target: human CTLA4 (human) (UniProt P16410); assay: ELISA, coat human CTLA4 0.5 ug/ml; antibody 1:243 (start 1 ug/ml)
human CTLA4 (human) [21] = target: human CTLA4 (human) (UniProt P16410); assay: ELISA, coat human CTLA4 0.5 ug/ml; antibody 1:729 (start 1 ug/ml)
[22] = target: monkey CTLA4-hFc (monkey); assay: ELISA, coat monkey CTLA4-hFc 0.25 ug/ml; antibody 1:9 (start 1 ug/ml)
[23] = target: monkey CTLA4-hFc (monkey); assay: ELISA, coat monkey CTLA4-hFc 0.25 ug/ml; antibody 1:27 (start 1 ug/ml)
[24] = target: monkey CTLA4-hFc (monkey); assay: ELISA, coat monkey CTLA4-hFc 0.25 ug/ml; antibody 1:81 (start 1 ug/ml)
CTLA4-mFc [25] = assay: competitive ELISA, B7/1-hFc coated (competitor), CTLA4-mFc added; antibody 5 µg/ml
CTLA4-mFc [26] = assay: competitive ELISA, CTLA4-mFc coated, competitor B7/2-His; antibody 3 µg/ml diluted 1:9
CTLA4-mFc [27] = assay: competitive ELISA, CTLA4-mFc coated, competitor B7/2-His; antibody 1 µg/ml diluted 1:9
CTLA4-mFc [28] = assay: competitive ELISA, CTLA4-mFc coated, competitor B7/2-His; antibody 3 µg/ml diluted 1:27
CTLA4-mFc [29] = assay: competitive ELISA, CTLA4-mFc coated, competitor B7/2-His; antibody 3 µg/ml diluted 1:729
CTLA4-mFc [30] = assay: competitive ELISA, CTLA4-mFc coated, competitor B7/2-His; antibody 1.5 µg/ml diluted 1:27
CTLA4-mFc [31] = assay: competitive ELISA, CTLA4-mFc coated, competitor B7/2-His; antibody 1.5 µg/ml diluted 1:243
CTLA4-mFc [32] = assay: competitive ELISA, B7/1-hFc coated (competitor), CTLA4-mFc added; antibody 0 (no antibody)
CTLA4-mFc [33] = assay: competitive ELISA, B7/1-hFc coated (competitor), CTLA4-mFc added; antibody 5 µg/ml diluted 1:9
CTLA4-mFc [34] = assay: competitive ELISA, B7/1-hFc coated (competitor), CTLA4-mFc added; antibody 5 µg/ml diluted 1:27
CTLA4-mFc [35] = assay: competitive ELISA, B7/1-hFc coated (competitor), CTLA4-mFc added; antibody 5 µg/ml diluted 1:729
CTLA4-mFc [36] = assay: competition ELISA, coat B7/1-hFc 0.2 ug/ml (competitor), CTLA4-mFc 0.3 ug/ml detected; antibody 1:9 (start 3 ug/ml)
CTLA4-mFc [37] = assay: competition ELISA, coat B7/1-hFc 0.2 ug/ml (competitor), CTLA4-mFc 0.3 ug/ml detected; antibody 1:27 (start 3 ug/ml)
CTLA4-mFc [38] = assay: competition ELISA, coat B7/1-hFc 0.2 ug/ml (competitor), CTLA4-mFc 0.3 ug/ml detected; antibody 1:243 (start 3 ug/ml)

Sequence of control antibody 11.2.1 (VH): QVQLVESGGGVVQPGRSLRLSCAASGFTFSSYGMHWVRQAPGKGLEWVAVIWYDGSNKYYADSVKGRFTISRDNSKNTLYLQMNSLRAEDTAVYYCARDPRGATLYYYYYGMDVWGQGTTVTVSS
Sequence of control antibody 11.2.1 (VL): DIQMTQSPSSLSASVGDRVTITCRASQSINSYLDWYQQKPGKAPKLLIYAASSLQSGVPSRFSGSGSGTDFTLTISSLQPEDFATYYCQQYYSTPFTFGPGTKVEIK
Sequence of human CTLA4 (human) (P16410 36-161 limits assumed): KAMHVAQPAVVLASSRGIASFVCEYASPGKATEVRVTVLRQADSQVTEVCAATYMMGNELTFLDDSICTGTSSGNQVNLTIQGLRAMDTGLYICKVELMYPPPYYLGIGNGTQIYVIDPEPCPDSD

With control antibody 11.2.1 the absorbance at 450 nm (human CTLA4 (human) [1]) was 0.05, the absorbance at 450 nm (human CTLA4 (human) [2]) was 3.58 and 3.55 and the EC50 (human CTLA4 (human) [3]) was 0.09 nM. For the same substance, the EC50 [4] was 0.075 nM, the absorbance at 450 nm (human CTLA4 (human) [5]) was 1.37 and 1.53 and the absorbance at 450 nm [6] was 0.048 and 0.051. The absorbance at 450 nm (human CTLA4 (human) [7]) was 0.75 and 0.79, the absorbance at 450 nm (human CTLA4 (human) [8]) was 0.32 and 0.31 and the EC50 (CTLA4-mFc [9]) was 1.07 nM. It also gave an EC50 (CTLA4-mFc [10]) of 0.15 nM, an EC50 (CTLA4-mFc [11]) of 0.172 nM and an EC50 (CTLA4-mFc [12]) of 0.172 nM. The EC50 (CTLA4-mFc [13]) was 2.61 nM, the EC50 (CTLA4-mFc [14]) was 0.349 nM and the absorbance at 450 nm (human CTLA4 (human) [15]) was 3.5 and 3.48. The absorbance at 450 nm (human CTLA4 (human) [16]) was 3.21 and 3.19, the absorbance at 450 nm (human CTLA4 (human) [17]) was 1.25 and 1.27 and the absorbance at 450 nm (human CTLA4 (human) [18]) was 0.893 and 0.682. The absorbance at 450 nm (human CTLA4 (human) [19]) was 0.499 and 0.426, the absorbance at 450 nm (human CTLA4 (human) [20]) was 0.536 and 0.552 and the absorbance at 450 nm (human CTLA4 (human) [21]) was 0.253 and 0.263. The absorbance at 450 nm [22] was 1.11 and 1.05, the absorbance at 450 nm [23] was 0.625 and 0.665 and the absorbance at 450 nm [24] was 0.297 and 0.313. The absorbance at 450 nm (CTLA4-mFc [25]) was 0.08 and 0.089, the absorbance at 450 nm (CTLA4-mFc [26]) was 0.412 and 0.482 and the absorbance at 450 nm (CTLA4-mFc [27]) was 0.17 and 0.16. The absorbance at 450 nm (CTLA4-mFc [28]) was 0.676 and 0.585, the absorbance at 450 nm (CTLA4-mFc [29]) was 1.36 and 1.23 and the absorbance at 450 nm (CTLA4-mFc [30]) was 0.622 and 0.529. The absorbance at 450 nm (CTLA4-mFc [31]) was 0.93 and 0.754, the absorbance at 450 nm (CTLA4-mFc [32]) was 1.28 and 1.3 and the absorbance at 450 nm (CTLA4-mFc [33]) was 0.16 and 0.138. For the same substance, the absorbance at 450 nm (CTLA4-mFc [34]) was 0.488 and 0.369, the absorbance at 450 nm (CTLA4-mFc [35]) was 0.909 and 0.793 and the absorbance at 450 nm (CTLA4-mFc [36]) was 0.381 and 0.485. The absorbance at 450 nm (CTLA4-mFc [37]) was 0.597 and 0.579 and the absorbance at 450 nm (CTLA4-mFc [38]) was 0.9 and 0.52.

— patent publication US20260166139A1
